Data from publication PMC6956856.

Target: Drosophila melanogaster SERINC (Drosophila melanogaster)
Test: cryo-EM structure

- stoichiometry N: 6
Substance: Drosophila melanogaster SERINC (natural protein)
